From paper PMC3202462

Assays:
[1] = target: E-domain of gephyrin (residues 309-750, P1 variant); assay: ITC
[2] = target: GST fusion of the intracellular domain of the GABAAR α5 subunit; assay: far-Western, overlay or dot blot
GST-α1 T375D (mouse) = GST-α1 T375D (mouse) (UniProt P62812); assay: far-Western, overlay or dot blot
GST-α1 T375A (mouse) = GST-α1 T375A (mouse) (UniProt P62812); assay: far-Western, overlay or dot blot
GST-α1 T375E (mouse) = GST-α1 T375E (mouse) (UniProt P62812); assay: far-Western, overlay or dot blot
[3] = target: GST fusion of the intracellular loop of the GABAAR α2 subunit; assay: far-Western, overlay or dot blot

Substance | Kd [1] [µM] | dH [1] [kcal/mol] | stoichiometry N [1] | gephyrin binding, % of control [2] | gephyrin binding normalised to GST-α1 (100%) (GST-α1 T375D (mouse)) [%] | gephyrin binding, % of control (GST-α1 T375A (mouse)) | gephyrin binding normalised to GST-α1 (100%) (GST-α1 T375E (mouse)) [%] | gephyrin binding, % of GST-α1 [3]
6-His-tagged GABAAR α1 T375A cytoplasmic loop (domain or fragment) | 36 | -15 | 0.64 | – | – | – | – | –
6-His-tagged GABAAR α1 cytoplasmic loop (M3-M4), wild type (domain or fragment) | 17 | – | 0.62 | – | – | – | – | –
35S-methionine-labelled gephyrin, P1 isoform (natural protein) | – | – | – | 12.9 % of control | 68.9 | 109 % of control | 62.5 | 43.7 % of GST-α1
6-His-tagged GABAAR α1 T375E cytoplasmic loop (domain or fragment) | 183 | – | 0.69 | – | – | – | – | –
